Source: US20190194718, “GENERATION OF TAGGED DNA FRAGMENTS” (QIAGEN GMBH, published 2019)

Target: BPHIN 1 (wild-type HIV-1 integrase) (Human immunodeficiency virus 1, UniProt P04585 P04585:1148-1435)
Experiment: pGL2 fragments 150-500 bp; 5 mM MnCl2, 37 C
Settings: tags: BioProducts MD, LLC; chain copies: 4; partially double-stranded

B1: IN adaptor 7 (dsDNA)
DNA 1: AATGATACGGCGACCACCGAGATCTACACTCTTTCCCTACACGACGCTCTTCCGATCTAGCAGT
DNA 2: ACTGCT
binding result: binds
